Biological target: mannose receptor (on NR8383 rat alveolar macrophages) (rat)
Assay: cell-based or functional assay

Row | uptake by rat alveolar macrophages in the absence of mannan (GCD activity in cell lysate, pNP-G assay) [ng/mL lysate] | uptake by rat alveolar macrophages, reduction by mannan (GCD activity in cell lysate, pNP-G assay) [%] | Substance
1 | 200 | 85 | prh-GCD cross-linked with bis-NHS-PEG5 at a 50:1 bis-NHS-PEG5:GCD molar ratio (from UniProt P04062 40-536) (enzyme)
2 | 333 | 90 | Plant recombinant human glucocerebrosidase (prh-GCD) (from UniProt P04062 40-536) (enzyme)

— US20120328589A1
